# Test results as given in US20030059763A1, “Immunoglobulin class switch recombination” (priority 2001, published 2003).
# B1: IL-4: cytokine purchased from R & D system (protein, UniProt P05112 25-153, looked up)
# Interleukin-4: HKCDITLQEIIKTLNSLTEQKTLCTELTVTDIFAASKNTTEKETFCRAATVLRQFYSHHEKDTRCLGATAQQFHRHKQLIRFLKRLDRNLWGLAGLNSCPVKEANQSTLENFLERLKTIMREKYSKCSS
# B2: IL-10: cytokine (protein, UniProt P22301 19-178, looked up)
# Interleukin-10: SPGQGTQSENSCTHFPGNLPNMLRDLRDAFSRVKTFFQMKDQLDNLLLKESLLEDFKGYLGCQALSEMIQFYLEEVMPQAENQDPDIKAHVNSLGENLKTLRLRLRRCHRFLPCENKSKAVEQVKNAFNKLQEKGIYKAMSEFDIFINYIEAYMTMKIRN
# B3: IFN-γ: cytokine (protein, UniProt P01579 24-161, looked up)
# Interferon gamma: QDPYVKEAENLKKYFNAGHSDVADNGTLFLGILKNWKEESDRKIMQSQIVSFYFKLFKNFKDDQSIQKSVETIKEDMNVKFFNSNKKKRDDFEKLTNYSVTDLNVQRKAIHELIQVMAELSPAAKTGKRKRSQMLFRG
# Experiments:
# [1] = tested on: Ramos 2G6 cells stably transfected with XF-1; test: Substrate switch recombination (SSR), GFP positive cells by FACS, construct XF-1; type: cell-based, human; conditions: XF-1 cells; cytokines alone or in combination with CD40 mAb
# Description: (§1) The backbone of our switch substrate contained 1.6 Kb of the human Sμ (Zhang and Cheah, 2000, supra) and 1.8 Kb of the human Sγ2 regions (Mills et al, 1995, supra) under the transcriptional control of the CMV (pCMV) and the SV40 promoters (pSV40) respectively. A RSV LTR enhancer/promoter (pRC/RSV-LTR) and a GFP gene under the control of an internal ribosome entry site (IRES) were interposed between Sμ and Sγ2 in the reverse transcriptional orientation (FIG. 1A). Thus, the GFP gene will not be expressed within the gennline configuration of the construct. Detection of switch recombination between the Sμ and Sγ2 in the construct is based on the mechanism of the deletional recombination that excises and deletes the intervening DNA sequences between the Sμ and Sγ2. This excised sequence including the IRES-GFP expression unit forms an extrachromosomal circular DNA that is now under the transcriptional control of the pRSV-LTR (FIG. 1A). The RNA splice donor and acceptor sites permit uniform expression of the GFP from the excised circular DNA (FIG. 1A). Since the GFP gene is expressed only after the switch recombination (recombination or inversion, FIG. 1A) between the Sμ and Sγ2, switch recombination can be monitored in the cultured living cells in “real-time” by fluorescence microscopy. Furthermore, the frequency of switch recombination can be quantitatively measured by flow cytometry.
# (§2) To test the potential roles of DNA sequences that may control or regulate the processes involved in switch recombination, the DNA fragments of interest were engineered into the basic switch construct (XF-1) to generate a series of modified switch constructs as diagrammed in the FIG. 1B. All the modified constructs were transfected into Ramos 2G6 cells as stable constructs to establish the switch cell lines. The integrity and copy number of the constructs were determined by Southern Blot analysis and PCR. Only subclones that contain a single copy of the construct were used. To distinguish the substrate switch recombination described here from switch recombination occurring at the intrinsic IgH loci (e.g., CSR), the former is abbreviated as SSR.
# (§3) The human B lymphoma cell line Ramos 2G6 (ATCC, Rockville pike, Md.) and its subclones, L cells stably transfected with human CD40L (CD154) provided by D. Rawlings, UCLA), and CHO cells stably transfected with murinc CD40L (Immunex Inc, Seattle, Wash.) were maintained and cultured in complete PRMI 1640 (Zhang et al, 1994, supra). One million cells in 0.2 ml were transfected with 10 μg plasmid DNA by electroporation (200V, 0.975 μF). Genicitin (G418) was added to cultures two days later for clonal selection and the levels increased over four week to concentrations that were previously determined by dosage titration for the different cell lines.
# (§4) The expression of GFP in cell lines stably transfected with switch vectors following various stimulated culture conditions was measured by either single- or dual-color flow cytometry (FACS Core laboratory, UCLA). The data were analyzed with FCS express software (De Novo software Inc, Thornhill, Ontario, Canada).
# Ramos 2G6/XF-5a.1 cells = test: Substrate switch recombination (SSR), GFP positive cells by FACS, construct XF-5a; type: cell-based, human; conditions: for effect on SSR: XF-5a / XF-5a.1 cells, antibodies 1 μg/ml, cytokines 5 ng/ml alone or with CD40 mAb
# Description: pXF-5a: A PCR amplified 356 bp fragment containing Iε exon and its 5′ promoter region (pIε) was inserted into Xho I and Xba I sites in pXF-1.
# as §1, §2, §3, §4
# [2] = tested on: plasmid p77D3.11 (human Sμ and Sε); test: In vitro (cell-free) switch recombination assay, white vs blue colonies; type: biochemical; conditions: added to the recombination reaction; EDTA 10 mM
# Procedure: Nuclear cell extracts from primary human B cells and cell lines were prepared by the Nonidet P-40 (NP-40) lysis method (Dyer and Herzog, BioTechniques 19:192-195 (1995)) with important modifications. Briefly, 10^8 (10^7 for cell lines) purified fresh human tonsillar B lymphocytes (Zhang et al., 1994, supra) were harvested following culture for 3 days with or without 0.1 μg/ml of anti-CD40 monoclonal antibody G28.5 (Zhang et al., 1994, supra) and were lysed with 1 ml of sucrose buffer (0.32 M sucrose, 3 mM CaCl2, 2 mM magnesium acetate, 0.1 mM EDTA, 10 mM Tris-HCl, pH 8.0, 1 mM DTT, 0.5 mM PMSF) containing 0.5% (vol/vol) NL-40 (BRL, Gaithersburg, Mich.). The cells were lysed immediately and the intact nuclei were pelleted by centrifugation at 2400 rpm/5 min at 4° C. The nuclei were washed twice (10^8 B cells/ml) with ice-cold sucrose buffer lacking NP-40. The pelleted nuclei were suspended in 50 μl/10^8 B cells with low-salt buffer (20 mM Hepes, pH 7,6, 25% glycerol, 1.5 mM MgCl2, 20 mM KCl, 0.2 mM EDTA, 0.5 mM DTT, 0.5 mM PMSF) followed by slowly adding 1 vol of high-salt buffer (20 mM Hepes, pH 7.6, 25% glycerol, 1.5 mM MgCl2, 800 mL KCl, 0.2 mM EDTA, 0.5 mM DTT, 0.5 mM PMSF) at 4° C. for 30 min with agitation for nuclear protein extraction. […] The concentration of the nuclear protein was determined by Bradford assay. […]
# [3] = biological target: CD40 on human B lymphoma cell line Ramos 2G6 (stably transfected with switch constructs XF-1 / XF-5a) (human) (UniProt P25942); test: cell-based or functional assay
# CD40 on human B lymphoma cell line Ramos 2G6 (stably transfected with switch constructs XF-1 / XF-5a) (human), sequence (P25942 21-277): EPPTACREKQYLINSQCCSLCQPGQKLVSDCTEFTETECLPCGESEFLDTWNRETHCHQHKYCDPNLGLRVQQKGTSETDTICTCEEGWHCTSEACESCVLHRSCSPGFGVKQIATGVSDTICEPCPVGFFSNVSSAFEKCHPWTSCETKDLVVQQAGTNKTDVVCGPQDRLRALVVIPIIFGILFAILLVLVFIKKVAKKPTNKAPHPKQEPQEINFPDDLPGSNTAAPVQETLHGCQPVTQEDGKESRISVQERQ
# [4] = tested on: Ramos 2G6 cells stably transfected with XF-2b; test: Substrate switch recombination (SSR), construct XF-2b; type: cell-based, human; conditions: XF-2b cells
# Description: pXF-2b: The CMV promoter in pXF-2a was deleted by removal of the Ase I and Xho I fragment.
# as §2
# as §3, with “One million cells in 0.2 ml were transfected with 10 μg plasmid DNA by electroporation (200V, 0.975 μF).” left out, “lines. […]” for “lines.”
# [5] = tested on: Iε-Cε1′ transcripts in Ramos 2G6/XF-5a.1 cells; test: RT-PCR of processed Iε-Cε1′ transcripts from the construct; type: cell-based, human; conditions: 48 hours, IL-4 1 ng/ml, CD40 mAb 1 μg/ml
# Procedure: The cells were cultured in the presence of IL-4 (1 ng/ml) and CD40 mAb (1 μg/ml) for 48 hours following by RNA preparation and RT-PCR. Total RNA (2 μg) was used for reverse-transcription and cDNA derived from 0.2 μg of RNA was subject to PCR amplification using the primers diagrammed in the FIG. 7B. The ratio of SSR from the cultures (assayed at day 5) is shown in the bottom. […] Diagrams of the formation of the “germ line” transcripts Iε-Cε1′ from the transgenes and the Iε-Cε2 from the endogenous IgH ε locus are shown in the FIG. 7B. The arrows represent the positions of the primers used for PCR.
# PCR and […] (RT-PCR) were performed as described previously (Zhang et al, 1994, supra; Zhang and Cheah, 2000, supra). For amplification of the Sμ-Sγ2 products, genomic DNA from the stably transfected Ramos 2G6 cells was amplified with PCR Kit for GC-rich DNA (Clonetech, Palo Alto, Calif.). […]
# The role of transcriptional activity vs. SSR was further investigated using Ramos 2G6/XF-5a.1. As the XF-5a construct contains the Iε exon and a Cε1 exon (referred to as Cε1′) that is able to form processed transcripts through RNA splicing, transcriptional activity of the construct can be semi-quantitatively determined by measuring the Iε-Cε1′ transcripts by RT-PCR (FIG. 7). […]
Molecule,effect on SSR frequency [1],effect on SSR (Ramos 2G6/XF-5a.1 cells),also measured
IL-5: cytokine,did not increase,did not increase,
TGF-β,did not increase,did not increase,
O=C(O)CN(CCN(CC(=O)O)CC(=O)O)CC(=O)O [EDTA],,,effect on recombination activity [2]: almost completely blocked the activity
Anti-CD40 mAb G28.5 (antibody),,,"GFP expression level (percent of cells), Ramos 2G6/XF-5a.1, in the presence of IL-4 [3]: > 50%; SSR frequency (percent GFP positive cells), Ramos 2G6/XF-5a.1, without IL-4 [3]: 3.2%; SSR rate (percent GFP positive cells), Ramos 2G6 with construct XF-1 [3]: 1.9%"
IL-6: cytokine,did not increase,did not increase,
B1,marginal effects,limited effects,"GFP expression, plateau of IL-4 dose-response (Ramos 2G6/XF-5a.1 cells; XF-5a cells, in the presence of CD40 mAb (1 μg/ml), plateau at 3 ng/ml IL-4): around 50%; SSR [4]: efficient SSR did not result; change of level of processed Iε-Cε1′ transcripts over pCMV-driven level [5]: minimally increased"
B2,did not increase,did not increase,
B3,did not increase,did not increase,
